Results published in the nanobody polyreactivity screen of Harvey et al. (2022).

Assay: yeast display, Sf9 membrane polyspecificity reagent, FACS + sequencing; frameworks hold sequencing errors
Summary of the method: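 Polyreactivity labels are assigned by the sorting gate from which each nanobody was recovered. The gates were low and high (top ~1%), set on anti-HA fluorescence for expression and streptavidin fluorescence for reagent binding. Before sorting, galactose-induced (36–48 hours) yeast display cells were stained for 1 hour at 4 °C with 10% biotinylated, detergent-solubilized Sf9 membrane reagent.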

Sequence | polyreactivity (PSR sort gate)
QVQLVESGGGLVQAGGSLRLSSAASGRTFTRYTMGWYRQAPGKERELVAAIRYSGGSTYYADSVKGRFTISRDNAKNTVYLQMNSLKPEDTAVYYCAARSYYYGFLYRYDYWGQGTQVTVSS | low polyreactivity
QVQHVESGGGLVQAGGSLRLSCAASGITFSSYAMGWYRQAPGKERELVAAISSGGSTYYADSVKGRFTISRDNAKNTVYFQMNSLKPEDTAVYYCAAELATYVPNKWYYRYTGYYYWGQGTQVTVSS | low polyreactivity
QVQLVESGGGLVQAGGSLRLSCAASGSIFGFYAKGWSRQAPGKEWELVAAITSGDSTHYADSVKGRFTISRDNAKNTVYLQMKSLKPEDTAVNYCAASAPYRYYRSAYSYWGLGTQVTVSS | low polyreactivity
QVQLVESGGGLVQAGGSLRLSCAASGFIIAQYAMGWYRQAPGKERELVAGITSTGSTNYADSVKGRFTISRDNAKNTVYLQMNSLKPEDTAVYYCNTDYITASAVFDYDYWGQDTQVTVSS | low polyreactivity
QVQLVESGGGLVQAGGSLRLSCAASGRILRFYAMGWYRQAPGKERELVATISRSGGSTYYADSVKGRFTISRDNAKNTVYLQMNSLKPEDTAVYYSNAKFKGVSYKMDYWGQGTQVTVSS | high polyreactivity
QVQLVESGGGLVQAGGSLRLICDASGSTFYRYAMGWYRQAPGKERELVAAISRSGGRTYYADSVKGRFTISRDNAKNTVYLQMNSLKPEDTADYYCAADVGPKQDATHDYWGQGTQLTVSS | high polyreactivity
QVQLVESGARLVQEGGSLRLSCAASGSIFGRYVMGGYRQEPGKEREFVAAITYSGSSTYYADSVKGRFTISRDNAKNTVYLQMNSLKPEDSAVYYCNTYPGSFYWMGYWGQGTQVTVSS | high polyreactivity
QVQLVESGGGLVQAGGSLRLSCAASGSTFNRNAMGWYRQAPGKERDLVAAISWRGDTTSYADSVKGRSTISRDNAKNTFYLQMNSLNPEDTAVYYCATAHDYAFYRYWYVPSEYNYWGQGTQVTVSS | low polyreactivity
QVQLVESGGGLVQAGGSLRLSCAASGSIVVKYDMSWYRQAPGKERELVAAISGSGGSTYYADSVKGRFTISRDNAKNTVYLQMNSVKPEDTAVYYCAADDYFYSGRYGFEYWGQGTQVTVSS | low polyreactivity
QVQLVESGGGLVPARGSLRLSCAASGRTFGPYAMGWYRQAPGKERELVAAITDTGSGTYYADSVKGRFTISRDNSKNTVYLQMNSLKPVDTAVYYCNAVRKYWGQGTQVTVSS | low polyreactivity
QVQLVESGGGLVQAGGSLRLSCDASGRIFFWYAMGWYRQAPGKERELVAGITSAGSTNYADSVKGRFTISRDNAKNTVYLQMNSLKPEDTSVYFCNTVDSIPIGSGLYYYWGQGTQVTVSS | low polyreactivity
QVQLVESGGGLVQAGGSLRLSCAASGRISRRYAMGWYRQAPGKERELVAAITSGGRTYYADSVKGRFTISRDNAKNTVYLQMNSLKPEDTAVYYCAAAGYLPSTYWGQGTQVTVSS | high polyreactivity
QVQLVESGGGLVQAGGSLRLSCADSGSTFWPYAMGWYRQAPGKESEVVAAISSSGGSTYYADSVQGRFTISRDNAKNTVYLQMNSLKPEDTAVYYCNKDYHRPFGGGSKGDYWGQRTQVTVSS | low polyreactivity
QVQLVESGGGLVQAGGSIRLSCAASGFIFNHYAMGWYRQAPVKEREFVAAISWSGTRTYYADSVKGRFTISRDNAKNTVYLQMNSLKPEDTAVYYCAADVWGPYDYWGQGTQVTVSS | low polyreactivity
QVQLVESGAGLVQAGGSLRLSCAASGSTFSYYAMGWSRQAPGKERELVAAITSSGGSTYYADSVKGRFTISRDNAKNTVYLQMNSLKQEDTAVYYCNTAYHVPYDYWGQGTQVTVSS | low polyreactivity
QVQLEETGGGLVQAGGSLPLSCAASGRTFRFYTMGWYRQAPGKERELVAVISNGGSTNYADSVKGRFTISRDNANTTVYLQMNSLKPEDTAVYDCAAGWVWSGNDYYYWGQGTQVTVSS | low polyreactivity
QVQLVESGGGLVQAGGSLRLSCAASGITFGNYAMGWYRQAPGKEREFVAAISQSYGRTYYADSVKGRFTISRDNAKNTVYLQMNSLKPEDTAVYYCAARTRGSSRGDYDYWGQGTQVTVSS | high polyreactivity
QVQLVESGGGLVQAGGSLRLSCAASGSTFLYNAMGWYRQAPGKERELVAAITIGGGSTYYADSVKGRFTISRDNAKNTVYLQMNSLKPEDTAVYYCNKGSYYWWDPGSTYIDDNWGQGTQVTVSS | low polyreactivity
QVQLLESGGGLVQAGGSLRLSCAASGRTFSGYAMGWYRQAPGKERELVAAISESGDGTYYADSVKGRFTISRDNAKNTVYLQMNSLKPEDTAVYYCAADGTLFSEYYWFFGYHDYWGQGTQVTVSS | high polyreactivity
QVQLVESGGALVQAGGSLRLSCAASGSILDPKAMGWYRQAPGKERELVASISRGDNTYYADSVKGRFTISRDNAKNTVYLQMNSLKPEDSAVYYCAADYSWVVWHDYWGQGTQVTVSS | low polyreactivity
QVQLVESGGGLVQAGCSLRLSCAASGLIIPVYVMGWYRQAPGKERELVADITTVGSTYADSVKGRFTISRDNAKNTVYFQMNSLKPEDTAVYYFADDPPAQQYWWDHGNYWGQGTQVTVSS | low polyreactivity
QVQLVESGGGLVQAGGSLRLSCAASGSTFRVNAMGWYRQAPGKERELVAAISFSAGGTYYADSVKGRFTISRDNAKNTVYLQMNSLKPADTAVYYCNARYGGWVWSTYDHWGQGTQVTVSS | low polyreactivity

Sequence | polyreactivity (PSR sort gate)
QVQLVESGGGLVQAGGSLRLSCAASGRIFGQYAMGWYRQAPGKERELVAAISWRGGTTYYADSVKGRFTISRDNAKNTVYLQMNSLKPEDTAVYYCNADVWVYPYDYWGQGTQVTVSS | low polyreactivity
QVQHVESGGGLVQAGGSLRLSCAASGSTFTWYTMGWYRQAPGKERELVATIRKRGGSTYYADSVKGRFTISRDNAKNTVYLQMNSLKPEDTAVYYCAAVYKVHSGLYEYWGQGTQVTVSS | high polyreactivity
QVQLVESGGGLVQAGGSLRLSCAASGSTFWYYGMGWYRQAPGKEMELVARINWSTGRTYYADSVKGRFTISRDTAKNTVYLQMNSLKPEDTAVYYCNALNPYKGQEAHYDYWGQGTQVTVSS | high polyreactivity
QVQLVESGGGLVQAGGSLRLSCAASGSTLVTYAMGWYRQAPGKERELVARIDSGGSTNYADSVKGRFTISRDNAKNTVYLQMNSLKPEDTAVYYCSAGGGFYFIWTMDYWGQGTQVTVSS | low polyreactivity
QVQLVESGGGLVQAGGSLRLSCAASGSIFQPYAMGWYRQAPGKEREFVAAISRSGGITYYADSVKGRFTISRDNAKNTVYLQMNSLKPEDTAVYYCATGRQVVRSYSEGDYWGQGTQVTVSS | low polyreactivity
QVQRVESGGGLVQARGSLRLSCAPSGSIFPYYAMGCYRPAPGKERELVAGISRRGGTTYYADSVKGRLTISRDNAKNTVYIQMHSLKPEDTAVYYCAARYGPYVDRYGYCGQGTQVTVSS | high polyreactivity
QVQLVESGGGLVQAGGSLRLSCAASGFTFVRNAMGWYRQAPGKERELVAAISDRGGTYYADSVKGRFTISRDNAKNTVYLQMNSLKPEDTAVYYCAAKYWYPYQYSHGSFYYWGQVTQVTVSS | high polyreactivity
QVQLLESGGGLVQAGGSLRLSCAASGRILTGYAMGWYRQAPGKERELVASINWRGGSTYYADSVKRRFTISRDNAKNTVYLQLNSLKPEDTAVYYCAARVRVTGTYYTKYDYWGQGTQVTVSS | high polyreactivity
QVQLVESGGGLVQAGGSLRLSCAASGRIFKVYTMGWYRQAPGKERELVATITRSGTSTYYADSVKGRFTISRDNAKNTVYLQMNSLKPEDTAVYYCARRVGYKFSYDYWGQGTQVTVSS | high polyreactivity
QVQLVESGGGLVQAGGSLRLSCAASGRTFRPYAMGWYRQAPGKERELVAAIDSSGTSTYYADSVKGRFTISRDNAKNTVYLQMYSLKPEDTAVYYCAKAWPDHWYSRYDYWGQGTQVTVSS | low polyreactivity
QVQLVESGGGLVQAGGSLRLSCAASGFFFEINAMGWYRQAPGKERELVAVITNSGGSTYYADSVKGRFTISRDNAKNTVYLQMNSLKPEDTAVYYCAADAVHYTNDWYDYWGQGTQVTVSS | low polyreactivity
QVQLVESGGGLVQAGGSLRLSCAASGSIYTWYAMVWYRQAPGKERELVAAITRGGSTYADSVKGRFTISRDNAKNTVFLQMNSLKPEDTAVYYCATDLQPRSFLYWYNYWGQGTQVTVSS | low polyreactivity
QVQLVESGGGVVQAGGSLRLSCAASGSIFLYIYAKGWYRHAPGKERELVATINWDGGSTYYADSVKGRFTISRDNAKNTVYLQMNSLKPEDTAVYYCAADWYYSYYFYRFDYWGQGTQVTVSS | low polyreactivity
QVQLVESGGGLVQAGGSLRLSCAASGLIMRTNVMGWYRQPPGKERELVAAINFRTGSTYYADSVKGRFTISRDHAKNTVYLQMNSLKPEDTAVYYCAKAERRHYDYWGQGTQVTVSS | low polyreactivity
QVQLVESGGGLVQAGGRLRLSCAASGFYLNAMGWYRQAPGKDRELVATITSSATNTYYADSVKGRFTISRDNAKNTVYLQMNSLKPEDTAVYYCNARYTSHTLADGVYLYDYWGQGTQVTVSS | low polyreactivity
QVQLVESGGGLVQAGGSLRLSCAASGSTLYIYAKGWYRQAPGKETEFDADFSWSGGSTYYADSVKGRFTISRDYASNTVYLQMNSQKPEDTAVYNCNGDFTDSYLSRYDYWGQGTQVTVSS | low polyreactivity
QVQLVDSGGGLDQAGGSLRLICDASGSIFWWNAMGWYRQAPGKETELVAAINWSTGRTYYADSVKGRFTISRDNAKNTVYLQMNSLKPEDTAVYYCGADVWTPYLISLKSGYDYWGQGTQLTVSS | low polyreactivity
QVQLVESGGGLVQAGCSLRLSCAASGSIFEPYVMGWYRQAPGKERELVAAIRQTGGSTYYADSVKGRFKISRDNAKNTVYLQMNSLKPEDNAFYYCNAEHNPSGLYDYRGVECEMGYWGQGNQVTVSS | low polyreactivity
QVQLVESGGGLVQAGGSLRLSCAASGRTFFRNAMGWYRQAPGKERELVAGMSSSGGRTYADSVKGRYTISRDNAKNTVYLQMNSLKPEDTAVYYCAVQSGWVSGLRYYYWGQGTQVTVSS | high polyreactivity
EVQLVESGGGLVQPGGSLRLSCAASGYIYSRYRMGWYRQAPGKGREFVAAISGGSSTNYADSVKGRFTISRDNSKNTVYLQMNSLRAEDTAVYYCAAYKIDIDPRVYWGHGTQVTVSS | low polyreactivity
QVQLVESGGGLVQAGGSLRLSCAASGSIFFGYAMGWYRPAPGKERELVAAISSDGSTYYADSVKGRFTISRDNAKNTVYLQMNSLKPEDTAVYYCNAEQAIFYWYATVTYDYWGQGTQVTVSS | low polyreactivity
